Reference: US20190015483A1 (CSL BEHRING RECOMBINANT FACILITY, published 2019)

T1: recombinant Factor VIII (CSL627, rVIII-SingleChain) (Homo sapiens (Human), UniProt P00451 20-2351)
T1 construct: also called FVIII
T1 sequence: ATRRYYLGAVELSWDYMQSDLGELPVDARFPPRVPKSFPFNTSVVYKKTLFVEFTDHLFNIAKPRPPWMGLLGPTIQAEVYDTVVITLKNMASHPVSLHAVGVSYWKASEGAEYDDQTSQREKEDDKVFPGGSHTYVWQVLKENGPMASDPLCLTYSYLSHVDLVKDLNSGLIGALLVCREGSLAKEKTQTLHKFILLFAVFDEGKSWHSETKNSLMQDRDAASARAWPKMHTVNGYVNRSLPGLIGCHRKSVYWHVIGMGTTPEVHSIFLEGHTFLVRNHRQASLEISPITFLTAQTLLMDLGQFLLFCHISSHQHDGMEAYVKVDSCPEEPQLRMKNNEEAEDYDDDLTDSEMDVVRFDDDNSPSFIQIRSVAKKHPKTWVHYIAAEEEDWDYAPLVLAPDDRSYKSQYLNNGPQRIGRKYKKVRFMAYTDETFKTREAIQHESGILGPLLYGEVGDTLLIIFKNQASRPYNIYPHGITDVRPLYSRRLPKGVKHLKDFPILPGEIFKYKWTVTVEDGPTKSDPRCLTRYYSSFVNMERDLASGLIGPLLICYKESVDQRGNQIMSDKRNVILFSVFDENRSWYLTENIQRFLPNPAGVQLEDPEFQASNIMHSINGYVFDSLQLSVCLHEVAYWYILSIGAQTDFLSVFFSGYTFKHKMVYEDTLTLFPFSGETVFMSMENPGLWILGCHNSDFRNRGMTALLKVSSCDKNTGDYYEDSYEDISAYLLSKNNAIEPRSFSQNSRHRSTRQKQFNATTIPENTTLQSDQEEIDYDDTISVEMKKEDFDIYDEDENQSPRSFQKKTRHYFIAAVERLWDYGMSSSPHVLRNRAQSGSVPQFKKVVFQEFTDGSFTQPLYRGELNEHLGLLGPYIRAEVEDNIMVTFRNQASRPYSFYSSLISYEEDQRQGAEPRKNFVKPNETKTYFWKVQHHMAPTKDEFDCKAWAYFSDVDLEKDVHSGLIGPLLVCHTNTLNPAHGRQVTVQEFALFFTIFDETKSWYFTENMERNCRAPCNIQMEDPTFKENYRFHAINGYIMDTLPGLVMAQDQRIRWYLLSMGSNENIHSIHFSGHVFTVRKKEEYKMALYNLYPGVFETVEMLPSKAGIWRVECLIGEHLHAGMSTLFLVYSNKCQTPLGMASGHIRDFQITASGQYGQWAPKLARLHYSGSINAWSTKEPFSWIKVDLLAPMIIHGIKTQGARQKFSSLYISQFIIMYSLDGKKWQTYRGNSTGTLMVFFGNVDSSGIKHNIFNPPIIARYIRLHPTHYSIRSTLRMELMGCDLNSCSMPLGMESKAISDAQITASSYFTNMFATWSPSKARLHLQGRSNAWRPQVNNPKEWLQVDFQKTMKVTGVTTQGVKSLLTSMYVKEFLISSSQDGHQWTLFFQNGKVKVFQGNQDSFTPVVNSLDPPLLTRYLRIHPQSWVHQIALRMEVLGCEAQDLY

T2: recombinant Factor VIII (CSL627, rVIII-SingleChain) (Homo sapiens (Human), UniProt P00451 20-2351)
T2 construct: also called FVIII
T2 sequence: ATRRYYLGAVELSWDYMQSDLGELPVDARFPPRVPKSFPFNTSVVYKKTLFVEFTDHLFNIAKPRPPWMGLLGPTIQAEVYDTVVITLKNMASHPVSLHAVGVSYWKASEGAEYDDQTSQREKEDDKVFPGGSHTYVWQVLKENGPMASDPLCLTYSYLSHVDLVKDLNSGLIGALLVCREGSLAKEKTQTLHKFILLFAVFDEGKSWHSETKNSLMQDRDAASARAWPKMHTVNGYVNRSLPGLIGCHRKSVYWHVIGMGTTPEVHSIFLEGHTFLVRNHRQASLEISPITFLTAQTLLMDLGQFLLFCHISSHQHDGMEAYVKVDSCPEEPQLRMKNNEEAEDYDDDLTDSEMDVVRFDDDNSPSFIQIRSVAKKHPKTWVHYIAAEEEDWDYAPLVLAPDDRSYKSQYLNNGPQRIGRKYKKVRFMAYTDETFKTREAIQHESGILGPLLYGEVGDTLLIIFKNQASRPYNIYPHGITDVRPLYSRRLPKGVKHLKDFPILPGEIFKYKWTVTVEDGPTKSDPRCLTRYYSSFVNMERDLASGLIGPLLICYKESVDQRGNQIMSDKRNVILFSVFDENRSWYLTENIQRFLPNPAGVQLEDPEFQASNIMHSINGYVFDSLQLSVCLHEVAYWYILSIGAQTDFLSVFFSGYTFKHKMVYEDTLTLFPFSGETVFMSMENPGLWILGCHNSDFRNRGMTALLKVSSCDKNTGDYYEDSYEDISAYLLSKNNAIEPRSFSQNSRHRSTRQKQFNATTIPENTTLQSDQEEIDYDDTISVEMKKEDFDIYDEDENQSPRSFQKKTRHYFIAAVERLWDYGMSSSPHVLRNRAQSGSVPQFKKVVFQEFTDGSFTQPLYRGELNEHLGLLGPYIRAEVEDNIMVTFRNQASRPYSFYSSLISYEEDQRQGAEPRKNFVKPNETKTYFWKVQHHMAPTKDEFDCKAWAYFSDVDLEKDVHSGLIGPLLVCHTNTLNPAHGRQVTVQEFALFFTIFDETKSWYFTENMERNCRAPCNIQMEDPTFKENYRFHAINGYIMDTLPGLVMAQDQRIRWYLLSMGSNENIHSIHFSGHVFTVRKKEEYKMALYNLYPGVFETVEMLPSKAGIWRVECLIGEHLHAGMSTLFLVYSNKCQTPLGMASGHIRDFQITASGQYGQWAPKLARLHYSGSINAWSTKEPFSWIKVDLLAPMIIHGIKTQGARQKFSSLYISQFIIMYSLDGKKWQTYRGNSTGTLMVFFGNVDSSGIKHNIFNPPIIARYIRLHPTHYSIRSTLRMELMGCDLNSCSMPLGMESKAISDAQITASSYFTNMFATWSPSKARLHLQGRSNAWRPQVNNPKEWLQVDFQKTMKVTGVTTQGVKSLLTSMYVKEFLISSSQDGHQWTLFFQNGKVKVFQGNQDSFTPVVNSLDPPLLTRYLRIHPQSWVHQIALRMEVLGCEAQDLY

B1: Hu-vWF[764-1270]-8His S764W/S766Y (other)
chain: WLYCRPPMVKLVCPADNLRAEGLECTKTCQNYDLECMSMGCVSGCLCPPGMVRHENRCVALERCPCFHQGKEYAPGETVKIGCNTCVCRDRKWNCTDHVCDATCSTIGMAHYLTFDGLKYLFPGECQYVLVQDYCGSNPGTFRILVGNKGCSHPSVKCKKRVTILVEGGEIELFDGEVNVKRPMKDETHFEVVESGRYIILLLGKALSVVWDRHLSISVVLKQTYQEKVCGLCGNFDGIQNNDLTSSNLQVEEDPVDFGNSWKVSSQCADTRKVPLDSSPATCHNNIMKQTMVDSSCRILTSDVFQDCNKLVDPEPYLDVCIYDTCSCESIGDCACFCDTIAAYAHVCAQHGKVVTWRTATLCPQSCEERNLRENGYECEWRYNSCAPACQVTCQHPEPLACPVQCVEGCHAHCPPGKILDELLQTCVDPEDCPVCEVAGRRFASGKKVTLNPSDPEHCQICHCDVVNLTCEACQEPGGLVVPPTDAPVSPTTLYVEDISEPPLHDFHHHHHHHH
B2: Hu-vWF[764-1270]-8His S764Y/S766Y (other)
chain: YLYCRPPMVKLVCPADNLRAEGLECTKTCQNYDLECMSMGCVSGCLCPPGMVRHENRCVALERCPCFHQGKEYAPGETVKIGCNTCVCRDRKWNCTDHVCDATCSTIGMAHYLTFDGLKYLFPGECQYVLVQDYCGSNPGTFRILVGNKGCSHPSVKCKKRVTILVEGGEIELFDGEVNVKRPMKDETHFEVVESGRYIILLLGKALSVVWDRHLSISVVLKQTYQEKVCGLCGNFDGIQNNDLTSSNLQVEEDPVDFGNSWKVSSQCADTRKVPLDSSPATCHNNIMKQTMVDSSCRILTSDVFQDCNKLVDPEPYLDVCIYDTCSCESIGDCACFCDTIAAYAHVCAQHGKVVTWRTATLCPQSCEERNLRENGYECEWRYNSCAPACQVTCQHPEPLACPVQCVEGCHAHCPPGKILDELLQTCVDPEDCPVCEVAGRRFASGKKVTLNPSDPEHCQICHCDVVNLTCEACQEPGGLVVPPTDAPVSPTTLYVEDISEPPLHDFHHHHHHHH
B3: Hu-vWF[764-1270]-8His S764P-S766L (other)
chain: PLLCRPPMVKLVCPADNLRAEGLECTKTCQNYDLECMSMGCVSGCLCPPGMVRHENRCVALERCPCFHQGKEYAPGETVKIGCNTCVCRDRKWNCTDHVCDATCSTIGMAHYLTFDGLKYLFPGECQYVLVQDYCGSNPGTFRILVGNKGCSHPSVKCKKRVTILVEGGEIELFDGEVNVKRPMKDETHFEVVESGRYIILLLGKALSVVWDRHLSISVVLKQTYQEKVCGLCGNFDGIQNNDLTSSNLQVEEDPVDFGNSWKVSSQCADTRKVPLDSSPATCHNNIMKQTMVDSSCRILTSDVFQDCNKLVDPEPYLDVCIYDTCSCESIGDCACFCDTIAAYAHVCAQHGKVVTWRTATLCPQSCEERNLRENGYECEWRYNSCAPACQVTCQHPEPLACPVQCVEGCHAHCPPGKILDELLQTCVDPEDCPVCEVAGRRFASGKKVTLNPSDPEHCQICHCDVVNLTCEACQEPGGLVVPPTDAPVSPTTLYVEDISEPPLHDFHHHHHHHH
B4: Hu-vWF[764-1270]-8His S764P-S766M (other)
chain: PLMCRPPMVKLVCPADNLRAEGLECTKTCQNYDLECMSMGCVSGCLCPPGMVRHENRCVALERCPCFHQGKEYAPGETVKIGCNTCVCRDRKWNCTDHVCDATCSTIGMAHYLTFDGLKYLFPGECQYVLVQDYCGSNPGTFRILVGNKGCSHPSVKCKKRVTILVEGGEIELFDGEVNVKRPMKDETHFEVVESGRYIILLLGKALSVVWDRHLSISVVLKQTYQEKVCGLCGNFDGIQNNDLTSSNLQVEEDPVDFGNSWKVSSQCADTRKVPLDSSPATCHNNIMKQTMVDSSCRILTSDVFQDCNKLVDPEPYLDVCIYDTCSCESIGDCACFCDTIAAYAHVCAQHGKVVTWRTATLCPQSCEERNLRENGYECEWRYNSCAPACQVTCQHPEPLACPVQCVEGCHAHCPPGKILDELLQTCVDPEDCPVCEVAGRRFASGKKVTLNPSDPEHCQICHCDVVNLTCEACQEPGGLVVPPTDAPVSPTTLYVEDISEPPLHDFHHHHHHHH

Legend:
[1] = molecular target: T1, recombinant Factor VIII (CSL627, …); assay: SPR, anti-His capture
Procedure: Binding kinetics were investigated by surface plasmon resonance using a Biacore 4000 biosensor at 37° C. Each mutant was captured from cell culture medium to a density of 40-150 RU on a CM-5 sensor chip pre-immobilised with anti-His antibody (14,000 RU). In an initial screening study, FVIII was injected over the captured mutants for 5 minutes at 1 nM and dissociation monitored for 5 minutes.
All sensorgrams were double referenced by subtraction of signals from a reference spot (containing only immobilised anti His antibody) and from a blank injection. Binding kinetics were determined by fitting the double referenced sensorgrams to a 1:1 kinetic model.

[2] = molecular target: T2, recombinant Factor VIII (CSL627, …); assay: SPR, anti-His capture, FVIII injected, pH 5.5

| Kd [1] | koff [1] | kon [1] | Kd [2] | koff [2] | kon [2] | Binder |
| --- | --- | --- | --- | --- | --- | --- |
| 0.0109 nM | 9.67e-05 s⁻¹ | 8.88e+06 M⁻¹ s⁻¹ |  |  |  | B1 |
| 0.00247 nM | 7.88e-05 s⁻¹ | 3.19e+07 M⁻¹ s⁻¹ |  |  |  | B2 |
|  |  |  | 0.234 nM | 0.000104 s⁻¹ | 445000 M⁻¹ s⁻¹ | B3 |
|  |  |  | 0.292 nM | 9.16e-05 s⁻¹ | 314000 M⁻¹ s⁻¹ | B4 |
